Measured values from patent US20210292416A1 (Eli Lilly, published 2021).

Key:
[1] = molecular target: T1, human PD-1-extracellular domain (ECD) (human, UniProt Q15116 25-170); assay: SPR (Biacore 2000) at 37 C, antibody captured on Protein A, soluble PD-1-ECD as analyte, 1:1 Langmuir fit, mean ± SD
T1 construct: also called human PD-1-ECD; PD-1-ECD
Protocol: Samples are diluted in HBS-EP+(10 mM HEPES, 150 mM NaCl, 0.05% Tween-20, pH 7.6) running buffer (Teknova Cat #H8022). Protein A (5 mg/mL, Calbiochem Cat #539202) is immobilized on flow cells 1 to 4 of a CM5 senor chip (GE Healthcare Cat #29149604) at a level of 3000 to 4000 response units (RUs) using amine coupling chemistry. Briefly, the surfaces of all four flow cells are activated by injecting a 1:1 mixture of EDC/NHS for 7-minutes at 10 μL/minute. Protein A is diluted to 200 μg/mL in 10 mM acetate, pH 4.5 buffer and immobilized for approximately 3000-4000 RUs onto all four flow cells by 7-minute injection at flow rate of 10 μL/minute. Unreacted sites are blocked with a 7-minute injection of 1M Ethanolamine-HCl pH 8.5 at 10 μL/minute. Five 30-second injections of glycine pH 1.5 at 10 μL/minute are used to remove any non-covalently associated protein.
Binding is evaluated using multi-cycle kinetics by an antibody capture method. […] All analyte concentrations are determined utilizing monomeric molecular weight (MW) values. Association rates (kₒₙ) and dissociation rates (koff) for PD-1-ECD are evaluated using double referencing by flow-cell 1 reference subtraction in addition to 0 nM blank subtraction and fit to “1:1 (Langmuir) binding” model in the BIAevaluation software version 4.1. […]

[2] = molecular target: T2, human PD-1 (on cells) (human, UniProt Q15116 25-288); assay: cell-based or functional assay
[3] = molecular target: T2, human PD-1 (on cells); assay: cell-based or functional assay; remark: listed apart in the source
[4] = molecular target: T3, human CD137-ECD-C121S-Fc mutant K114E (human, UniProt Q07011 24-186); assay: point ELISA on coated CD137-Fc mutant, mean of normalised absorbance over eight concentrations
T3 construct: Mutant of human CD137-ECD-C121S-Fc; not shown: Fc part
Excerpt: (§1) The CD137-Fc mutants are generated using the standard protocol of a commercially-available site directed mutagenesis kit (Quickchange II kit, […]). The wild-type and mutant CD137-Fc proteins are expressed and purified. […] To determine the impact of a mutation on the binding of the antibodies, a point ELISA assay against CD137-Fc wild type and mutants is utilized. The wells of a 96-well Immulon 4HBX ELISA plate are coated overnight with 50 nanograms of human CD137-ECD-C121S-Fc or its mutants in 100 microliters of PBS, pH 7.2 with mild agitation at 4° C. After blocking (with 5% BSA in PBST) and washing, a five-fold dilution eight-point series (100 to 0.00128 nanomolar) of the designated antibody is added and incubated with mild agitation at room temperature for 1 h. The wells are washed and a HRP-conjugated secondary antibody (1:10000 dilution of HRP-conjugated goat anti-Fab antibody (Jackson ImmunoResearch Laboratories) is added and incubated at room temperature following standard protocol. TMB peroxidase chromogenic substrate and stop solution are used according to manufacturer's instruction for visualization and detection of signals. Absorbance readings for each concentration point is normalized by the absorbance of the wild-type interaction. For each mutant, the mean of the normalized ratio for the eight concentrations is determined.

[5] = molecular target: T4, human CD137-ECD-C121S-Fc mutant Q67R (human, UniProt Q07011 24-186); assay: as above
T4 construct: Mutant of human CD137-ECD-C121S-Fc; not shown: Fc part
Excerpt: as §1

[6] = molecular target: T5, human CD137-ECD-C121S-Fc mutant D63N (human, UniProt Q07011 24-186); assay: as above
T5 construct: Mutant of human CD137-ECD-C121S-Fc; not shown: Fc part
Excerpt: as §1

[7] = molecular target: T6, human CD137-ECD-C121S-Fc mutant K115Q (human, UniProt Q07011 24-186); assay: as above
T6 construct: Mutant of human CD137-ECD-C121S-Fc; not shown: Fc part
Excerpt: as §1

[8] = molecular target: T7, human CD137-ECD-C121S-Fc mutant P27L (human, UniProt Q07011 24-186); assay: as above
T7 construct: Mutant of human CD137-ECD-C121S-Fc; not shown: Fc part
Excerpt: as §1

[9] = molecular target: T8, human CD137-ECD-C121S-Fc mutant M101R (human, UniProt Q07011 24-186); assay: as above
T8 construct: Mutant of human CD137-ECD-C121S-Fc; not shown: Fc part
Excerpt: as §1

[10] = molecular target: T9, human CD137-ECD-C121S-Fc mutant A97P (human, UniProt Q07011 24-186); assay: as above
T9 construct: Mutant of human CD137-ECD-C121S-Fc; not shown: Fc part
Excerpt: as §1

[11] = molecular target: T10, human CD137-ECD-C121S-Fc mutant Q67V (human, UniProt Q07011 24-186); assay: as above
T10 construct: Mutant of human CD137-ECD-C121S-Fc; not shown: Fc part
Excerpt: as §1

[12] = molecular target: T11, human CD137-ECD-C121S-Fc mutant G98K (human, UniProt Q07011 24-186); assay: as above
T11 construct: Mutant of human CD137-ECD-C121S-Fc; not shown: Fc part
Excerpt: as §1

[13] = molecular target: T12, human CD137-ECD-C121S-Fc mutant G98Q (human, UniProt Q07011 24-186); assay: as above
T12 construct: Mutant of human CD137-ECD-C121S-Fc; not shown: Fc part
Excerpt: as §1

[14] = molecular target: T13, human CD137-ECD-C121S-Fc mutant S100T (human, UniProt Q07011 24-186); assay: as above
T13 construct: Mutant of human CD137-ECD-C121S-Fc; not shown: Fc part
Excerpt: as §1

[15] = molecular target: T14, human CD137-ECD-C121S-Fc mutant Q104K (human, UniProt Q07011 24-186); assay: as above
T14 construct: Mutant of human CD137-ECD-C121S-Fc; not shown: Fc part
Excerpt: as §1

[16] = molecular target: T15, human CD137-ECD-C121S-Fc mutant N42S (human, UniProt Q07011 24-186); assay: as above
T15 construct: Mutant of human CD137-ECD-C121S-Fc; not shown: Fc part
Excerpt: as §1

[17] = molecular target: T16, human CD137-ECD (human, UniProt Q07011 24-186); assay: SPR (Biacore 2000) at 37 C, antibody captured on Protein A, soluble CD137-ECD as analyte, steady state affinity fit
T16 construct: In-house generated soluble ECD

[18] = molecular target: human CD137 (on cells) (human, UniProt Q07011 24-255); assay: cell-based or functional assay
Sequence of human CD137 (on cells) (Q07011 24-255 limits assumed): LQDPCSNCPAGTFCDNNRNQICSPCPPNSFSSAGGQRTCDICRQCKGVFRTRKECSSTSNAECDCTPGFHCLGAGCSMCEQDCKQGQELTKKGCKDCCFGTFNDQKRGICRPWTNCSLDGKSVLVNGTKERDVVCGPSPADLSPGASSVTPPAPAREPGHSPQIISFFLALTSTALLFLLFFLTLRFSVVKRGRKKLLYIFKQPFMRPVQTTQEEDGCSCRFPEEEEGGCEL

T2 sequence (Q15116 25-288 limits assumed): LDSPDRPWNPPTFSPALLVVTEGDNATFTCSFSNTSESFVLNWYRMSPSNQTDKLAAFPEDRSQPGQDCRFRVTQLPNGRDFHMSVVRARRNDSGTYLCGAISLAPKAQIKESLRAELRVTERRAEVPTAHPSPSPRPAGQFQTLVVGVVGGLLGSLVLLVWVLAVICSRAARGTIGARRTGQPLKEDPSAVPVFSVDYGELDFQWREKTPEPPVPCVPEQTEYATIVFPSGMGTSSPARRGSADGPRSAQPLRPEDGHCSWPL
T4 sequence (Q07011 24-186 Q67R/C121S): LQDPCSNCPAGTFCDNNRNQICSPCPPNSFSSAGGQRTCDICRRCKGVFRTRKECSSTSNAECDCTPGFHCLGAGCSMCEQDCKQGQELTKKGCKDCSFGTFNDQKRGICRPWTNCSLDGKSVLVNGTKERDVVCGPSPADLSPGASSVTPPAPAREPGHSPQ
T12 sequence (Q07011 24-186 G98Q/C121S): as the sequence (Q07011 24-186 Q67R/C121S) above, with R44Q, G75Q counted along it
T3 sequence (Q07011 24-186 K114E/C121S): as the sequence (Q07011 24-186 Q67R/C121S) above, with R44Q, K91E counted along it
T11 sequence (Q07011 24-186 G98K/C121S): as the sequence (Q07011 24-186 Q67R/C121S) above, with R44Q, G75K counted along it
T5 sequence (Q07011 24-186 D63N/C121S): as the sequence (Q07011 24-186 Q67R/C121S) above, with D40N, R44Q counted along it
T6 sequence (Q07011 24-186 K115Q/C121S): as the sequence (Q07011 24-186 Q67R/C121S) above, with R44Q, K92Q counted along it
T8 sequence (Q07011 24-186 M101R/C121S): as the sequence (Q07011 24-186 Q67R/C121S) above, with R44Q, M78R counted along it
T7 sequence (Q07011 24-186 P27L/C121S): as the sequence (Q07011 24-186 Q67R/C121S) above, with P4L, R44Q counted along it
T13 sequence (Q07011 24-186 S100T/C121S): as the sequence (Q07011 24-186 Q67R/C121S) above, with R44Q, S77T counted along it
T9 sequence (Q07011 24-186 A97P/C121S): as the sequence (Q07011 24-186 Q67R/C121S) above, with R44Q, A74P counted along it
T10 sequence (Q07011 24-186 Q67V/C121S): as the sequence (Q07011 24-186 Q67R/C121S) above, with R44V counted along it
T14 sequence (Q07011 24-186 Q104K/C121S): as the sequence (Q07011 24-186 Q67R/C121S) above, with R44Q, Q81K counted along it
T16 sequence (Q07011 24-186 limits assumed): as the sequence (Q07011 24-186 Q67R/C121S) above, with R44Q, S98C counted along it
T1 sequence (Q15116 25-170 limits assumed): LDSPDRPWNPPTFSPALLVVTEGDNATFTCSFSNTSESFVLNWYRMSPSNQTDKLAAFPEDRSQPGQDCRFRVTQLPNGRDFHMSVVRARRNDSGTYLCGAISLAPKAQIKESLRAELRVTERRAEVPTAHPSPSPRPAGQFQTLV
T15 sequence (Q07011 24-186 N42S/C121S): as the sequence (Q07011 24-186 Q67R/C121S) above, with N19S, R44Q counted along it

Binder | IFN-γ mean EC50 in allogeneic MLR assay (3 donor pairs) [3] | IL-2 mean EC50 in allogeneic MLR assay (3 donor pairs) [3] [nM] | % of binding relative to wild-type hCD137 [4] [%] | % of binding relative to wild-type hCD137 [5] [%] | % of binding relative to wild-type hCD137 [6] [%] | % of binding relative to wild-type hCD137 [7] [%] | % of binding relative to wild-type hCD137 [8] [%] | % of binding relative to wild-type hCD137 [9] [%] | % of binding relative to wild-type hCD137 [10] [%] | % of binding relative to wild-type hCD137 [11] [%] | % of binding relative to wild-type hCD137 [12] [%] | % of binding relative to wild-type hCD137 [13] [%] | % of binding relative to wild-type hCD137 [14] [%] | % of binding relative to wild-type hCD137 [15] [%] | also measured
Antibody p-11444 (the parental antibody of the anti-PD1 arm of Antibody A) (antibody, V domains shown, Parental monoclonal anti-PD-1 antibody) VH: QVQLVQSGAEVKKPGSSVKVSCKASGGTFSSYAISWVRQAPGQGLEWMGLIIPMFDTAGYAQKFQGRVAITVDESTSTAYMELSSLRSEDTAVYYCARAEHSSTGTFDYWGQGTLVTVSS VL: DIQMTQSPSSVSASVGDRVTITCRASQGISSWLAWYQQKPGKAPKLLISAASSLQSGVPSRFSGSGSGTDFTLTISSLQPEDFATYYCQQANHLPFTFGGGTKVEIK | 88 pM | 0.238 | – | – | – | – | – | – | – | – | – | – | – | – | Kd [1]: 3.1 nM; EC50, NFAT-Luc reporter assay (Jurkat PD-1+CD137+NFAT-Luc2 cells with CHO-K1 PD-L1+TCR activator cells) [2]: 1.4 nM
BMS20H4.9 (antibody, V domains shown) VH: QVQLQQWGAGLLKPSETLSLTCAVYGGSFSGYYWSWIRQSPEKGLEWIGEINHGGYVTYNPSLESRVTISVDTSKNQFSLKLSSVTAADTAVYYCARDYGPGNYDWYFDLWGRGTLVTVSS VL: EIVLTQSPATLSLSPGERATLSCRASQSVSSYLAWYQQKPGQAPRLLIYDASNRATGIPARFSGSGSGTDFTLTISSLEPEDFAVYYCQQRSNWPPALTFGGGTKVEIKR | – | – | 100 | 100 | 100 | 100 | 85 | 100 | 100 | 100 | 100 | 100 | 100 | 100 | –
Antibody p-7A5 (the parental antibody of the anti-CD137 arm of Antibody A) (antibody, V domains shown, Parental monoclonal anti-CD137 antibody; also called Antibody 7A5; parental antibody 7A5) VH: QVQLVQSGAEVKKPGSSVKVSCKASGGTFSSYAISWVRQAPGQGLEWMGGIIPIFGTANYAQKFQGRVTITADESTSTAYMELSSLRSEDTAVYYCARDLMTTAPGTYFDLWGRGTLVTVSS VL: AIRMTQSPPSLSASVGDRVTITCQASQDIGNSLGWYQQKPGKAPKLVIFDASDLETGVPSRFSGSGSGTDFSLTISSLQPEDFATYYCQQGNSFPLTFGQGTRLEIK | > 32 nM | > 32 | 20 | 100 | 100 | 25 | 100 | 100 | 15 | 100 | 85 | 100 | 100 | 100 | % of binding relative to wild-type hCD137 [16]: 100%; Kd [17]: 341 nM; fold induction of NFkB-Luc luciferase signal at 0.01 nM antibody [18]: 0.98 fold; fold induction of NFkB-Luc luciferase signal at 0.04 nM antibody [18]: 0.88 fold; fold induction of NFkB-Luc luciferase signal at 0.15 nM antibody [18]: 0.94 fold; fold induction of NFkB-Luc luciferase signal at 0.59 nM antibody [18]: 1.07 fold; fold induction of NFkB-Luc luciferase signal at 2.34 nM antibody [18]: 1.66 fold; fold induction of NFkB-Luc luciferase signal at 9.38 nM antibody [18]: 2.29 fold; fold induction of NFkB-Luc luciferase signal at 37.50 nM antibody [18]: 2.72 fold; fold induction of NFkB-Luc luciferase signal at 150.00 nM antibody [18]: 2.6 fold
